The results in this text go back to publication PMC12125552.

Assay [1] addresses DdMyo7 long heavy meromyosin (lnHMM), FLAG-tagged (Dictyostelium). As to the kind of experiment: co-IP; lnHMM (FLAG) precipitated with anti-Flag beads from a MgATP-released, myosin-enriched cytoskeletal fraction of talA null cells; washed in Flag buffer (25 mM Hepes pH 7.4, 300 mM NaCl, 10 mM MgCl2 and 5 mM EGTA, or 2 mM CaCl2); eluted with Flag peptide; gel stained with Coomassie or Sypro Ruby, densitometry normalised to molecular weights; lower band identified by mass spectrometry.

Assay [2] addresses DdMyo7 short heavy meromyosin forced-dimer GFP (shHMM-FD-GFP) (Dictyostelium | not stated).
The target is the same in assay [3]. As to the kind of experiment: co-IP; as a2, but the resin washed in IP wash buffer + 2 mM CaCl2 (+Ca2+); immunoblot signal normalised for gel load and heavy chain abundance.

Chain of DdMyo7 long heavy meromyosin (lnHMM), FLAG-tagged (Dictyostelium) (Q9U1M8 686-725): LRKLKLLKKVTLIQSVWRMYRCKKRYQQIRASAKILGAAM

Turning to “Dictyostelium CaM-like protein CalB (natural protein)”, the stoichiometry N (usually the number of molecules, sites or subunits per partner or assembly) in assay [1] was determined as 2.01 CalB per HC. Moreover, the velocity of shHMM-FD on F-actin (TIRF motility assay) with 100 μM free Ca2+, against 40.7 nm/s without Ca2+ in assay [2] worked out at 23.6 nm/s. Consider FLAG-CalB (natural protein), for which the reduction of immunoblot signal with Ca2+ in assay [3] was found to be 75.1%.
